Laboratory results published in the supplement of paper PMC9170038.

Tested on: K4 kissing-loop RNA reporter
Assay: apparent KD of K4 kissing-loop reporter; higher = weaker reporter binding
Settings: Eterna round: R107
Procedure: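 RNA-MaP round R107: designed RNA switches with theophylline, tryptophan, arginine or FMN aptamers are transcribed on-chip within common flanks. They are titrated with a labelled K4 kissing-loop RNA reporter in RNA-MaP buffer (100 mM Tris pH 7.5, 80 mM KCl, 4 mM MgCl2), without ligand or with the indicated ligand. Median apparent KD per design.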

[1] = input ligand: theophylline 20 uM
[2] = input ligand: tryptophan 2.4 mM
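Note: bound reporter read as fluorescence of individual clusters on recovered sequencing chips by microscopy, with normalized cluster intensities fitted with a binding model.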

Sequence	apparent KD of K4 kissing-loop reporter (input ligand: FMN 200 uM) [µM]	apparent KD of K4 kissing-loop reporter (input ligand: arginine 13.2 mM) [µM]	apparent KD of K4 kissing-loop reporter (input ligand: none) [µM]	apparent KD of K4 kissing-loop reporter [1] [µM]	apparent KD of K4 kissing-loop reporter [2] [µM]
AGUACGGACGCGGCCGCCACUCAGGAGAAGAAGGUAGUGAUGUUGCUUAUGGAGAGAUCAAUCAAGAGGACCGGGUGCCGUGCAA [#07 K4 Tryptophan B Same State]	0.285	0.34	0.426	0.534	0.338
AGUAGUCGACAAGGAUAUACUAGGAGAGACGUUUGCACAUAACCUGCCCUACGAAGUGAUGUUUCGGUAGAAGGUGUUGGGCUGU [theeternabot_exclusion_KL_FMN_B_34]	0.0965	0.067	0.0876	0.0829	0.0715
AGUCCACUCUAAAGAGUGGACCUAAGGGAUACCAGUGAUGUUGGUCACCCUUGGCAGCCCACUGUCAUCGAUAAAGAUGGCAGAA	0.12	0.0981	0.114	0.122	0.116
AGUGAUAUAUGAGGAUAUGGGUUUGUUAAAGAGUUAGUUUUAGUGUUGUUUGGUUAGUGAUGUUAUUUAGAAGGCGUGAGUGAUG [foopmullin]	0.0972	0.0825	0.076	0.115	0.0729
AGUGAUGUUGUGUUAUGUUAGUGAAGUGAUCGAGGACCGGUACGGCCGCCACUCGAGUGAUGAGUGAGUGAUGUUUGUUUAGGGA [popmullin]	1.1	0.674	1.14	0.99	0.486
AGUGAUGUUUUUUUUAAGAGUGAUGUUUUUCGAGGACCGGUACGGCCGCCACUCGAGUGAUGAGUGCGGUGUUGUGAUGUUUAGU [ewmullin]	0.606	0.402	0.53	0.475	0.467
AGUGAUGUUUUUUUUAAGAGUGAUGUUUUUCGAGGACCGGUACGGCCGCCACUCGAGUGAUGAGUGCGUUGUUGUGAUGUUUAGU [#11 K4 Tryptophan A Exclusion]	0.438	0.362	0.473	0.413	0.246
AGUGGAACUUGCAGGUAUCCACAACUGGAUACCAGCUCGGAAACGAGCCCUUGGCAGCCAGAUCUUGCAGUGAUGUUGCAAGUUC [Design10]	0.392	0.323	0.392	0.412	0.381
AGUGUGCAAAAGCACACUCAGAACAAGGACAAGGAUAUCUACUAAUAGAGAAGGUGUCCUUUCCUUAGUGAUGUUAAGGAUCUGA [Omei KL FMN A SS D v4]	0.27	0.424	0.596	0.486	0.564
AGUGUUAGGUUAGAUACCAGCCGUUCGUGAAUAGUCUUCGAACCGCCAGUGAUGUUGGCAGGCCCUUGGCAGCUAACAGAACAGA [Lagelare]	0.212	0.199	0.198	0.159	0.208
AGUUCUUGCCGAAGGAGCGAGGCAGAGUGAUGUUCUGCACGAGGUCGAAAGACCUCGCUGCCUCAGGUAGGUCGCGGCAUGAACA [Omei KL Arginine B Exc A v2]	0.897	0.504	1.13	0.614	1.3
AUAAAUUUGUAGUGAUGUUGCAAGUUAGUCAAGGAUAUCAGGAAACUGAGAAGGUGAUAUCUCCUUUACUUGCAACUAGGAGGAG [KL-SSFMN-A11]	0.088	0.0873	0.091	0.0908	0.0857
AUAAUAUUGCGAGGAUAUCCUUCCCACGUCGAAGUACCGUGCUUGAUGGAGUGAUGUUCGAUCAGAGGAGAAGGCGCGGUGUUGU [Same State FMN B GF23]	0.734	0.543	0.656	0.611	0.571
AUACCUCUACGAGUGAUGUUUGUUGAGGAUACCAGCAUGUAUAGUUGCCCUUGGCAGCCUUGGCUCGUGCGCUCCCUCCGAACCG [theeternabot_exclusion_KL_Theo_A_30]	0.296	0.24	0.291	0.277	0.247
AUACGUUUAAGUGAUACCAGACAUGUGAGUGAUGUUUACAUAUAUAUUUAAUAUUUAGCUGUCCCUUGGCAGCACAGUUUAUUUA [JR_ExcTheophyB_Sub001]	0.35	0.374	0.441	0.399	0.308
AUAGAAAAGUGGCACCCUCACUAAAACAGUCGAGGACCGGUACGGCCGCCACUCGCGCGCUUUAGUGAUGUUAAAGCUAGGCGGA	0.269	0.228	0.265	0.259	0.245
AUAGCACCUUAUGAUACCAGACGAGUGAUGUUCUGUGGUGUCGUCACAAGGCAAUCGACUGUCCCUUGGCAGCAUCAUUCUAUAU [theeternabot_exclusion_KL_Theo_B_31]	0.563	0.531	0.453	0.722	0.73
AUAUCUAGAGUGAUGUUCUAGUAAGCUGAAGGAGCGGACGAAAGUCCAGGUAGGUCGCAGUGUUUUUACACCUCAUGUGUAGGAG [KL-SSArg-A7 #analogue]	0.118	0.128	0.107	0.163	0.13
AUAUCUGUUCGAAAGAACGGAUCUUCGGAAGGAGCGCGUGAAAACGCAGGUAGGUCGCCGAAGUUAUUAGGUAGUGAUGUUACCU [Arginine A K4 7]	0.129	0.0964	0.113	0.101	0.109
AUAUGCAGGAGAAGGAGCGUCGUUGCAAGUGAUGUUUGCAAGCGAGCUUACUAUAUACGACGACAGGUAGGUCGCUCCUGCGUAA [Arg B Ex t2]	0.0688	0.0617	0.0648	0.0581	0.0672
AUCGUUGCCAUUAGGACAUACGGUCCUGAACGAGGACCGGUACGGCCGCCACUCGAGCACACGAGUGAUGUUCGUGGGCAACGAU [Tryp A SS t1]	0.131	0.107	0.137	0.136	0.358
AUCUUGUUUGGAGGAUAUUCUUUAUUCGACAUAACCUUCUAUAAGGUGCAGUGAUGUUGCAAUAUAGGAGAAGGUCGAGUGAGAU [Exclusion FMN B GF 17]	0.239	0.174	0.188	0.166	0.188

Sequence	apparent KD of K4 kissing-loop reporter (input ligand: FMN 200 uM) [µM]	apparent KD of K4 kissing-loop reporter (input ligand: arginine 13.2 mM) [µM]	apparent KD of K4 kissing-loop reporter (input ligand: none) [µM]	apparent KD of K4 kissing-loop reporter [1] [µM]	apparent KD of K4 kissing-loop reporter [2] [µM]
AUGCAUCAGACUUGAUACGGUGAAAUAGCCCGAGGACCGGUACGGCCGCCACUCGGUCCAGUGAUGUUGGAUAAUUAAUCUAGGU [theeternabot_sameState_KL_Trp_A_34]	0.197	0.256	0.297	0.294	0.0824
AUGUAUGAAUUAGGAUAUCGUGAUCCAUGCAUAUAUAUGAUAAAUGGAUAUGUCGUAGUGAUGUUACGAGAAGGAGUGUGGAGUA [KL-XFMN-B1]	0.0626	0.0715	0.0643	0.093	0.045
AUGUCUGAUAGCAGUGAUGUUGCUUCAGAUACCAGACGAGAUCAUGUCCCUUGGCAGCUGACACGGCACGUGCUAGGUUAGAUGA [whbob_Ex_Theo_A_th71]	0.117	0.0944	0.118	0.102	0.102
AUUAAUAUCACGGCCGCCACUGUAUAUUGUUUUUAUAUUUAGAAUAAUUGCCAGUGAUGUUGGAACAGGACCGGGUGAGUUUAUA [#28 K4 Tryptophan B Same State]	0.511	0.434	0.626	0.402	0.323
AUUAAUUUCAGAGGAUAUGCUUUAUUAUUAUUUUUAAAUAAUAAAUGCAGUGAUGUUGCUUAUUAUGCAGAAGGCUGAUUUAUAA [JR_SSFMNB_Sub014]	0.119	0.625	0.603	0.586	0.545
AUUAUAAAGUCGGCCGCCACUGAGAGUAGUGAUGUUACUCUAUUCCUUUACAUAUUAUAGUUUAUCAGGACCGGGACAUCAGAUU [JR_ExcTryptoB_Sub018]	0.268	0.214	0.279	0.246	0.199
AUUAUAUAAUGGAGUGAUGUUCCAUCAGAUACCAGUGAAUUUGAACACCCUUGGCAGCUGUUGUUCAAAUAAUUUAAAUCCUUUA [JR_SSTheophyA_Sub019]	0.129	0.15	0.132	0.166	0.103
AUUCGUUUAUGUGAUACCAGACUUUGCAGUGAUGUUGCAUUAAUUUUUGAUUAUUAGUUUGUCCCUUGGCAGCACUAUUUAUUUA [JR_SSTheophyB_Sub004]	0.0402	0.0815	0.0448	0.0801	0.0366
AUUCUGUUUUUAAUGUUUAUUGUAUAAUGGCAGGAUAUCGUAGAAGCGAGAAGGGCUUUUAUGCGUUAUGAGUGAUGUUUGUAGG [dhhyfvmullin]	0.364	0.247	0.267	0.41	0.27
AUUUAAUUAACUGAUACCAGACUUUUUGUUUUGUUUAUUACUAGUGAUGUUAGUGUUUCUGUCCCUUGGCAGCAGUAUCUACUUA [JR_ExcTheophyB_Sub015]	0.134	0.202	0.131	0.239	0.122
AUUUAGACGAGUGAUGUUCGUGUUAUUACAGAGGAUAUGCGUAAUUGCAGAAGGCUGUAUUUAUAUAUGUUAUGUAAUUUUAAAA [JR_ExcFMNA_Sub007]	0.0895	0.108	0.088	0.0994	0.0732
AUUUGUUACCUUAUAGGAGUGAUGUUCUUGCGAGGACCGGUACGGCCGCCACUCGCGCUGGCGCCUAGCCUCGGACCGUUAAUUC [theeternabot_exclusion_KL_Trp_A_25]	0.582	0.325	0.635	0.497	0.431
AUUUUAUUAACUGAUACCAGACUUAAUGAUUUGUAAAUUACUAGUGAUGUUAGUGAUUCUGUCCCUUGGCAGCAGUAUUUAUUUA [JR_ExcTheophyB_Sub013]	0.0762	0.0856	0.0792	0.0876	0.0694
AUUUUCAUUUUAUUAUAUAACUUUUCAGAAGGAGCGUGGAAGUUCACAGGUAGGUCGCUGAAUAUUGGACUAGUGAUGUUAGUUA [JR_Nu_SSArginiA_Sub022]	0.202	0.244	0.23	0.259	0.207
AUUUUGGUUUAGAGUGAUGUUCCUUGUAUUCGAGGACCGGUACGGCCGCCACUCGAAUAGAAAAGAAAAGAAAUGUGUGAUGUUU [BDazzled - #5 SS Tryptophan A]	0.772	0.611	0.9	0.764	0.567
AUUUUGGUUUAGAGUGAUGUUCCUUGUAUUCGAGGACCGGUACGGCCGCCACUCGGGUAGAAAAGAAAAGAAAUGUUUGAUUUUU [BDazzled - #9 SS Tryptophan A]	0.282	0.102	0.21	0.223	0.29
AUUUUUUUAUCAGGAUAUUAGUGUUGGUUUGUUUUGUUAGUGAUGUUGAUAUUUGUUUUAUGUAUUUAAGAAGGGAUUUAGAUGU [viuupullin]	0.27	0.243	0.27	0.371	0.194
AUUUUUUUGUCAGGAUAUUAGUGUUGGUUUGGUUUGUUAGUGAUGUUGAUAUUUGUUUUAUGUAUUUAAGAAGGGAUUUAGCUGU [ppdemullin]	0.391	0.359	0.346	0.427	0.278
CAACAUCACAACUUCUUCGUCCUAGAAGACUAGGAUAUCAGGAAACUGAGAAGGAGUCUCUGCAGUGAUGUUGCAGCUAGGACGA [[K]'-[F2]'-[F1]'-[F1]-[F2]-[K1]-[K2]-[F]''_Design2b]	0.231	0.216	0.185	0.266	0.219
CACCAUGAAUUCUCUAGGAGUGAUGUUUUUCGAGGACCGGUACGGCCGCCACUCGGACGAGGAACGUGGGAGCGGCGAAAAGACU [xzzmullin]	0.0706	0.064	0.285	0.0839	0.121
CACCAUGAAUUCUCUAGGAGUGAUGUUUUUCGAGGACCGGUACGGCCGCCACUCGGACGAGGACCGUGGGAGCGGCGAAGCGACU [wwegmullin]	0.234	0.148	0.109	1.07	0.101
